B1: Band 3 anion transport protein (Homo sapiens), P02730 (parent)
chain: MEELQDDYEDMMEENLEQEEYEDPDIPESQMEEPAAHDTEATATDYHTTSHPGTHKVYVELQELVMDEKNQELRWMEAARWVQLEENLGENGAWGRPHLSHLTFWSLLELRRVFTKGTVLLDLQETSLAGVANQLLDRFIFEDQIRPQDREELLRALLLKHSHAGELEALGGVKPAVLTRSGDPSQPLLPQHSSLETQLFCEQGDGGTEGHSPSGILEKIPPDSEATLVLVGRADFLEQPVLGFVRLQEAAELEAVELPVPIRFLFVLLGPEAPHIDYTQLGRAAATLMSERVFRIDAYMAQSRGELLHSLEGFLDCSLVLPPTDAPSEQALLSLVPVQRELLRRRYQSSPAKPDSSFYKGLDLNGGPDDPLQQTGQLFGGLVRDIRRRYPYYLSDITDAFSPQVLAAVIFIYFAALSPAITFGGLLGEKTRNQMGVSELLISTAVQGILFALLGAQPLLVVGFSGPLLVFEEAFFSFCETNGLEYIVGRVWIGFWLILLVVLVVAFEGSFLVRFISRYTQEIFSFLISLIFIYETFSKLIKIFQDHPLQKTYNYNVLMVPKPQGPLPNTALLSLVLMAGTFFFAMMLRKFKNSSYFPGKLRRVIGDFGVPISILIMVLVDFFIQDTYTQKLSVPDGFKVSNSSARGWVIHPLGLRSEFPIWMMFASALPALLVFILIFLESQITTLIVSKPERKMVKGSGFHLDLLLVVGMGGVAALFGMPWLSATTVRSVTHANALTVMGKASTPGAAAQIQEVKEQRISGLLVAVLVGLSILMEPILSRIPLAVLFGIFLYMGVTSLSGIQLFDRILLLFKPPKYHPDVPYVKRVKTWRMHLFTGIQIICLAVLWVVKSTPASLALPFVLILTVPLRRVLLPLIFRNVELQCLDADDAKATFDEEEGRDEYDEVAMPV

Variants of: B1
Conditions: with g3p_rabit GAPDH

effect of a mutation on the interaction | Variant
decreasing interaction strength | Y904A
with no effect | D905A;E906A
decreasing interaction strength | D902A;E903A

— IntAct's records for PubMed 20980406
